Results taken from publication PMC13140710, “Small heat shock proteins HspB1 and HspB5 differentially alter the condensation and aggregation of the TDP‐43 low‐complexity domain” (Protein Science : A Publication of the Protein Society, 2026).

B1: TDP‐43 low‐complexity domain (TDP‐43^LCD), amino acids 267–414 of TDP‐43 (domain or fragment, UniProt Q13148 267-414, looked up)
chain: NRQLERSGRFGGNPGGFGNQGGFGNSRGGGAGLGNNQGSNMGGGMNFGAFSINPAMMAAAQAALQSSWGMMGMLASQQNQSGPSGNNQNQGNMQREPNQAFGSGNNSYSGSNSGAAIGWGSASNAGSGSGFNGGFGSSMDSKSSGWGM
modifications: Cy5 (mono NHS ester) label in TCCD and, at 1% of the protein, in FRAP; unlabelled in the other assays
notes: source: E. coli BL21(DE3), purified from inclusion bodies (HisTrap in 8 M urea), buffer exchanged into 20 mM MES pH 6.0
B2: HspB5^ACD (core α‐crystallin domain of HspB5, residues 68–162) (domain or fragment, human, UniProt P02511 68-162, looked up)
chain: MRLEKDRFSVNLDVKHFSPEELKVKVLGDVIEVHGKHEERQDEHGFISREFHRKYRIPADVDPLTITSSLSSDGVLTVNGPRKQVSGPERTIPIT
modifications: Alexa Fluor 647 (NHS ester) label in TCCD and in the condensate partitioning experiment
notes: Small heat shock protein HspB5 (αB-crystallin), α-crystallin domain, residues 68-162; pET28 vector, gift of A. Laganowsky (Laganowsky et al., 2010); also called core domain of HspB5; source: E. coli BL21(DE3), purified

What was measured:
[1] = target: T1, HspB5^WT (wild-type human HspB5, αB‐crystallin) (human, UniProt P02511 1-175, Alexa Fluor 647 (NHS ester) label in TCCD and in the condensate partitioning experiment; unlabelled in the other assays); test: two-color coincidence detection (TCCD), confocal single-molecule fluorescence; fluorescently labelled TDP-43^LCD and labelled sHsp, diluted to 200 nM in 20 mM MES pH 6.0, 25°C, both in solution; peaks found in both channels within 10 ms counted as coincident (hetero-oligomers); details: both partners purified
T1 construct: Small heat shock protein HspB5 (αB-crystallin), human, wild type, full-length isoform; Vector pET3a or pET24a; source: E. coli BL21(DE3), purified
T1 sequence (looked up): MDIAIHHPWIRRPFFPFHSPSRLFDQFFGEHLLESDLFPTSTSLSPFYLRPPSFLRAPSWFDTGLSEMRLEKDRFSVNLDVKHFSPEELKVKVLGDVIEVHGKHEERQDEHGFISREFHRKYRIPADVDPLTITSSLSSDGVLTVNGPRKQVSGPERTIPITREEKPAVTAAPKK

[2] = target: B1; test: as above; details: both partners purified

**Q.** Does B1 bind [1]?
**A.** binds

**Q.** Does B2 bind [2]?
**A.** binds
